In patent US9796965B2, “Use of Taq polymerase mutant enzymes for nucleic acid amplification in the presence of PCR inhibitors” (DNA Polymerase Technology Inc., priority 2006, dated 2017):
Positions count from the first letter of the chain named. In names and notes the source's numbering stands. Entries after “also recorded” stand apart in the source; their conditions may differ.

Assays:
[1] = Functional analysis of codon 708 saturated mutagenesis variants for resistance to PCR inhibitors; type: biochemical; settings: for functionality of the 708 substitution: KlenTaq or full-length Taq background
Description: Single amino acid changes of the wild type Taq Glu708 were implicated in both selected qualities of the mutants, blood and soil-resistance.
Saturated mutagenesis was performed at codon 708 of Taq to test functionally the full spectrum of all possible substitutions at this critical position.

630 bp CCR5 gene target = experiment: Real-time PCR of human CCR5 target mixed with crude soil extract and SYBR titration; type: biochemical; settings: 4 ng human DNA mixed with crude soil extract, SYBR titrated
Description: A 630 bp CCR5 gene target was amplified from 4 ng of human DNA mixed with crude soil extract and various amounts of SYBR. Klentaq-10 mutant enzyme was compared to it's wild type precursor, and FLAC-22 (SEQ ID NO: 2) was compared to the wild type Fast Start Taq polymerase (Roche). SYBR Green fluorescent dye was titrated to optimize the fluorescent signal for real time detection. PCR was performed in real-time cycler Opticon2, and the amplified products were analyzed both by gel electrophoresis (bottom panels) and SYBR Green dye melting curve profile (top panels).

[2] = tested on: 0.6 kbp Bacillus cereus target DNA; experiment: Real-time PCR of 0.6 kbp Bacillus cereus target challenged with two-fold SYBR green dilutions; settings: for SYBR concentration above which amplification failed / SYBR concentration in the presence of which the 0.6 kbp Bacillus cereus target DNA was amplified: 2.5 units enzyme per 50 ul, 20 pg genomic DNA, 40 cycles, no blood
[3] = tested on: 0.32 kbp 16S microbial target; experiment: Real-time PCR of 16S microbial target double challenged with 5% blood and SYBR green dilutions; settings: for amplification under double challenge: SYBR green dilutions from 32×, 40 cycles
[4] = tested on: anthrax genome target (1.3 kb Bacillus anthracis); type: biochemical; settings: 5% human blood, 32× SYBR Green
[5] = tested on: endogenous 600 bp target of Bacillus Cereus; experiment: Real-time PCR of endogenous Bacillus Cereus target from crude soil extract; type: biochemical; settings: soil extract 16%, 8%, 4%, 2%
[6] = tested on: 244 bp influenza virus RNA target; type: biochemical; settings: purified RNA and mimic crude samples with 8% plasma, serum, whole blood; PEC-Plus enhancer
[7] = tested on: 244 bp influenza virus target; type: biochemical; settings: 5% human serum, 200 μM TaqMan probe, PEC-Plus enhancer
[8] = tested on: 0.25 kbp Lambda specific target; experiment: Real-time PCR of Lambda target challenged with two-fold SYBR green dilutions; settings: for SYBR concentration in the presence of which the 0.25 kbp lambda target was amplified: purified DNA template, 2.5 units per 50 ul, 35 cycles
[9] = tested on: 0.6 kbp Bacillus cereus target DNA; experiment: Real-time PCR of Bacillus cereus target double challenged with 5% and 10% blood and SYBR green dilutions

With “FLAC-10: full-length Taq mutant with K substitution at 708, corresponding to Klentaq10” the “functionality of the 708 substitution” value [1] was “efficient”.

For “FLAC-3: full-length Taq mutant with Q substitution at 708”, the “functionality of the 708 substitution” value [1] was “only functional in Taq”.

For “FLAC-4: full-length Taq mutant with I substitution at 708”, the “functionality of the 708 substitution” value [1] was “only functional in Taq”.

In the case of “Fast Start Taq: commercial wild type Taq enzyme (Roche)”, the “melting curve profile in crude soil samples” value (630 bp CCR5 gene target) is reported as “showed a melting curve at very low SYBR concentration”, the “SYBR concentration above which amplification failed” value [2] is reported as “higher than 0.2 ×” and the “post PCR melting curve analysis” value ([3]; 5% blood) is reported as “did do not show the correct melting temperature of the product at all”. For the same molecule, the “amplification under double challenge” value ([3]; 5% blood) was “able to amplify only the positive control”.

For “FLAC-12: full-length Taq mutant with L substitution at 708, corresponding to Klentaq 12”, the “functionality of the 708 substitution” value [1] was “efficient”.

B1: KlenTaq-10: SEQ ID NO: 1; N-terminal deletion at 278 of full-length wild type Taq with substitutions E626K, I707L, E708K (protein)
chain: MGLLHEFGLLESPKALEEAPWPPPEGAFVGFVLSRKEPMWADLLALAAARGGRVHRAPEPYKALRDLKEARGLLAKDLSVLALREGLGLPPGDDPMLLAYLLDPSNTTPEGVARRYGGEWTEEAGERAALSERLFANLWGRLEGEERLLWLYREVERPLSAVLAHMEATGVRLDVAYLRALSLEVAEEIARLEAEVFRLAGHPFNLNSRDQLERVLFDELGLPAIGKTEKTGKRSTSAAVLEALREAHPIVEKILQYRELTKLKSTYIDPLPDLIHPRTGRLHTRFNQTATATGRLSSSDPNLQNIPVRTPLGQRIRRAFIAEEGWLLVALDYSQIELRVLAHLSGDKNLIRVFQEGRDIHTETASWMFGVPREAVDPLMRRAAKTINFGVLYGMSAHRLSQELAIPYEEAQAFIERYFQSFPKVRAWLKKTLEEGRRRGYVETLFGRRRYVPDLEARVKSVREAAERMAFNMPVQGTAADLMKLAMVKLFPRLEEMGARMLLQVHDELVLEAPKERAEAVARLAKEVMEGVYPLAVPLEVEVGIGEDWLSAKE
modifications: Klentaq-10
notes: N-terminal deletion at 278 of full-length wild type Taq with substitutions E626K, I707L, E708K
For B1, the “amplification/detection of Bacillus anthracis target in blood” value [4] was “specifically amplified the target in 5% blood”, the “amplification in the presence of crude soil extract” value [5] was “outperforming the two commercial Tags; also recorded: amplified successfully” and the “resistance to PCR inhibitors among all 708 mutant variants” value [1] was “superior in all aspects of inhibitors resistance to PCR inhibitors”. The “functionality of the 708 substitution” value [1] was “efficient”, the “RT-PCR amplification of influenza virus gene” value [6] was “work in RT-PCR” and the “real-time RT-PCR TaqMan detection of influenza virus gene” value [7] was “work in RT-PCR TaqMan assays”. For the same molecule, the “SYBR concentration in the presence of which the 0.25 kbp lambda target was amplified” value [8] was “at least 4 ×”, the “SYBR concentration in the presence of which the 0.6 kbp Bacillus cereus target DNA was amplified” value [2] was 4 × and the “resistance toward SYBR green” value ([2]; no blood in the reaction (comparison value given in Example 3)) was 4 ×. For the same molecule, the “SYBR concentration allowing amplification compared to wild type KlenTaq” value ([9]; 5% and 10% blood, SYBR dilutions from 64×) was “at least two times higher concentration of SYBR” and the “resistance toward SYBR green” value ([9]; with blood (5%, 10%) in the reaction) was “at least 64 ×”.

B2: wild type KlenTaq: SEQ ID NO: 3; N-terminal deletion at 278 of full-length Taq, Met/Gly replacing amino acids 279 and 280 (protein)
chain: B1 chain with K348E, L429I, K430E
modifications: Klentaq-1
For B2, the “melting curve profile in crude soil samples” value (630 bp CCR5 gene target) was “showed a melting curve at very low SYBR concentration” and the “SYBR concentration above which amplification failed” value [2] was “higher than 1 ×”.

B3: FLAC-22: SEQ ID NO: 2; full-length Taq with substitutions E626K, I707L, E708N (protein)
chain: MRGMLPLFEPKGRVLLVDGHHLAYRTFHALKGLTTSRGEPVQAVYGFAKSLLKALKEDGDAVIVVFDAKAPSFRHEAYGGYKAGRAPTPEDFPRQLALIKELVDLLGLARLEVPGYEADDVLASLAKKAEKEGYEVRILTADKDLYQLLSDRIHVLHPEGYLITPAWLWEKYGLRPDQWADYRALTGDESDNLPGVKGIGEKTARKLLEEWGSLEALLKNLDRLKPAIREKILAHMDDLKLSWDLAKVRTDLPLEVDFAKRREPDRERLRAFLERLEFGSLLHEFGLLESPKALEEAPWPPPEGAFVGFVLSRKEPMWADLLALAAARGGRVHRAPEPYKALRDLKEARGLLAKDLSVLALREGLGLPPGDDPMLLAYLLDPSNTTPEGVARRYGGEWTEEAGERAALSERLFANLWGRLEGEERLLWLYREVERPLSAVLAHMEATGVRLDVAYLRALSLEVAEEIARLEAEVFRLAGHPFNLNSRDQLERVLFDELGLPAIGKTEKTGKRSTSAAVLEALREAHPIVEKILQYRELTKLKSTYIDPLPDLIHPRTGRLHTRFNQTATATGRLSSSDPNLQNIPVRTPLGQRIRRAFIAEEGWLLVALDYSQIELRVLAHLSGDKNLIRVFQEGRDIHTETASWMFGVPREAVDPLMRRAAKTINFGVLYGMSAHRLSQELAIPYEEAQAFIERYFQSFPKVRAWLNKTLEEGRRRGYVETLFGRRRYVPDLEARVKSVREAAERMAFNMPVQGTAADLMKLAMVKLFPRLEEMGARMLLQVHDELVLEAPKERAEAVARLAKEVMEGVYPLAVPLEVEVGIGEDWLSAKE
modifications: FLAC-22
notes: full-length Taq with substitutions E626K, I707L, E708N
For B3, the “amplification/detection of Bacillus anthracis target in blood” value [4] was “successful real-time PCR detection”, the “resistance to PCR inhibitors among all 708 mutant variants” value [1] was “superior in all aspects of inhibitors resistance to PCR inhibitors” and the “functionality of the 708 substitution” value [1] was “only functional in Taq”. For the same molecule, the “RT-PCR amplification of influenza virus gene” value [6] was “work in RT-PCR”, the “real-time RT-PCR TaqMan detection of influenza virus gene” value [7] was “work in RT-PCR TaqMan assays” and the “SYBR concentration in the presence of which the 0.25 kbp lambda target was amplified” value [8] was 2 ×. For the same molecule, the “resistance toward SYBR green” value ([8]; without blood in the reaction (comparison value given in Example 4)) was 2 ×, the “SYBR concentration in the presence of which the 0.6 kbp Bacillus cereus target DNA was amplified” value [2] was 1.6 × and the “amplification under double challenge” value ([3]; 5% blood) was “capable of amplifying with all SYBR concentrations”. The “SYBR green necessary for real-time PCR detection” value ([3]; 5% blood, melting curve analysis) was “at least 4 ×” and the “resistance toward SYBR green” value ([3]; with 5% blood in the reaction) was “at least 32 ×”.
